The values that follow come from patent publication US12320801B2, “Methods to spatially profile protease activity in tissue and sections” (Massachusetts Institute of Technology, priority 2017, dated 2025).

One experiment addresses T1, MMP9 (Homo sapiens, UniProt P14780).
T1 construct: purchased Enzo Life Sciences
Description: In vitro recombinant protease assay: cleavage of nanoparticle-presented FRET substrate by MMP9. Format: biochemical. The note with it: 6 μM substrate. The method, then:
In some embodiments, surface presentation of peptide substrates allows tuning of specificity between on- and off-target proteolytic cleavage rates of the substrate (e.g., MMP9 substrate). The cleavage kinetics of an MMP9 peptide substrate (PLGVRGK; SEQ ID NO: 15), flanked by a fluorescence resonance energy transfer (FRET) pair, at varying distances from the nanoparticle core (FIG. 3A) were tested. For this substrate, the rate of cleavage by MMP9 increased with increasing presentation distance (tether length) for all the substrate concentrations tested (0.5, 1.0, 2.0, 4.0 and 6.0 μM); as an example, cleavage velocity (V) increased from 0.24 to 0.96 nM s^−1 at 6 μM (FIG. 3B). Unexpectedly, this phenomenon was not generalizable across enzymes. For example, cleavage rates by the serine protease, thrombin, decreased with increasing presentation distance when the same substrate was tested (e.g., V at 6 μM of substrate decreased from 0.29 to 0.01 nM s^−1; FIG. 3C). Nor was it generalizable across substrates. […]
Nanoparticles coupled with intramolecularly quenched peptide substrates were reacted with recombinant proteases to identify cleavage velocities. […] (SpectroMax Gemini EM microplate reader). Michaelis-Menten constants were determined by assessing initial cleavage velocities at different substrate concentrations (Prism 5.0, GraphPad). […]

The target of the next experiment is T2, thrombin (Homo sapiens, UniProt P00734).
T2 construct: purchased Haematologic Technologies
The experiment is described as follows: In vitro recombinant protease assay: cleavage of nanoparticle-presented FRET substrate by thrombin. Format: biochemical. To be noted: for cleavage velocity (V) by thrombin: 6 μM substrate. How it is done:
In some embodiments, surface presentation of peptide substrates allows tuning of specificity between on- and off-target proteolytic cleavage rates of the substrate (e.g., MMP9 substrate). The cleavage kinetics of an MMP9 peptide substrate (PLGVRGK; SEQ ID NO: 15), flanked by a fluorescence resonance energy transfer (FRET) pair, at varying distances from the nanoparticle core (FIG. 3A) were tested. For this substrate, the rate of cleavage by MMP9 increased with increasing presentation distance (tether length) for all the substrate concentrations tested (0.5, 1.0, 2.0, 4.0 and 6.0 μM); as an example, cleavage velocity (V) increased from 0.24 to 0.96 nM s^−1 at 6 μM (FIG. 3B). Unexpectedly, this phenomenon was not generalizable across enzymes. For example, cleavage rates by the serine protease, thrombin, decreased with increasing presentation distance when the same substrate was tested (e.g., V at 6 μM of substrate decreased from 0.29 to 0.01 nM s^−1; FIG. 3C). Nor was it generalizable across substrates. […] The presentation of the MMP9 substrate on the ABNs described in this example exploited the increased on-target and decreased off-target protease cleavage that occurs for long tether lengths.
Nanoparticles coupled with intramolecularly quenched peptide substrates were reacted with recombinant proteases to identify cleavage velocities. NPs were mixed with 1% (w/v) BSA (Sigma) and incubated with recombinant proteases (MMP-9, Enzo Life Sciences; thrombin, Haematologic Technologies) in a final volume of 50 μl in enzyme-specific buffers (MMP9 buffer: 50 mM Tris, 150 mM NaCl, 5 mM CaCl2), 1 μM ZnCl2, pH 7.5; thrombin: PBS) in a 384-well plate for time-lapse fluorimetry to measure dequenching at 37° C. (SpectroMax Gemini EM microplate reader). Michaelis-Menten constants were determined by assessing initial cleavage velocities at different substrate concentrations (Prism 5.0, GraphPad). The final MMP-9 concentration was 100 nM and the final thrombin concentration was 7 nM.

The next experiment addresses mouse MMP9 (Mus musculus, UniProt P41245). Description: Cleavage of MMP9 substrate by mouse MMP9. It is filed as biochemical. An excerpt: FIGS. 14A-14B show iRGD ABNz characterization.
Receptor expression on tumors varies by tumor type and patient. In this example, another ABN was produced using the tumor-penetrating ligand, iRGD (CRGDKGPDC; SEQ ID NO: 2). This peptide engages the same active-internalization pathway as LyP-1, but binds to αvβ3 or αvβ5 integrin heterodimers as its primary receptor, which are ectopically overexpressed in a large subset of cancers (FIG. 12A). The tumor-targeting peptides iRGD and LyP-1 were bound to ABNs and administered to an immunocompetent mouse model of colorectal liver metastasis (CLM), induced via an intrasplenic injection of p32-negative, integrin-positive and NRP-1-positive MC-26 cells (FIG. 12B-12C and FIGS. 13A-13C). MC-26 cells are derived from a mouse colorectal cancer line and secrete MMP9, which can be detected in the tumor nodules as well as in the tumor-adjacent liver, but not in non-tumor-bearing liver lobes (FIG. 12D). The stoichiometries for substrate conjugation on iRGD ABNs were similar to those used on the LyP-1 ABNs (FIG. 14A). […] This was consistent in the model of orthotopic ovarian cancer (FIG. 15D).

The test system of a further experiment is matrix-metalloprotease. The experiment is described as follows: Cleavage of MMP9 substrate by OVCAR-8 conditioned media with and without MMP inhibitor. Format: biochemical, human.
A further experiment has as its system OVCAR-8 tumor nodules. Description: Blood biomarker HE4 ELISA in orthotopic OVCAR-8 ovarian cancer model. Format: in vivo, mouse. How it is done: The ability of ABNs to: (1) detect low-burden ovarian cancer and (2) outperform a clinical blood biomarker were tested. Detection by ABNs was compared to the blood biomarker HE4, as OVCAR-8 cells produce relatively high levels of this protein, on a par with four other human ovarian cancer cell lines (FIGS. 10B-10C). […] This threshold of sensitivity is critical, as clinically approved imaging modalities can typically only resolve individual tumor nodules greater than 5 mm in diameter. Additionally, it has been estimated that to decrease serous ovarian cancer mortality by 50% with an annual screen, a test would have to be sensitive to tumors of <5 mm. […] It was confirmed that the tumor nodule retrieval methodology described in this example accounted for greater than 80% of the tumor burden by measuring luminescence pre- and post-resection (FIGS. 11D-11G). The tumor burden remaining can be attributed to uncollected macroscopic and microscopic lesions.
To generate an orthotopic model of human ovarian cancer, three- to four-week-old female NCr nude mice were injected intraperitoneally with 2×10^6 OVCAR-8 cells expressing firefly luciferase. Tumor burden was measured via luminescence using an in vivo imaging system (IVIS, PerkinElmer). Each mouse was sacrificed and the tumors were retrieved from all organs in the peritoneal space. Tumors were collected on a glass slide and scanned on a LI-COR Odyssey with 169 μm resolution. Widths and lengths were measured with ImageJ and tumor volume was calculated as described above for subcutaneous tumors. The reported tumor volumes for each group are the average of ten mice. Before tumor induction, urine measurements were performed by injecting mice with 0.5 μM LyP1 ABNs. Approximately 200 μl of blood was collected and spiked with EDTA to a final concentration of 5 mM, and the blood cells were pelleted. Plasma was stored at −20° C. prior to HE4 quantification. HE4 levels were measured using the HE4 quantikine ELISA kit.

Like-named read-outs stand apart in the source and are kept apart here. Non-standard residues stand in square brackets, D forms with d. Primed or numbered codes have the meaning given here. No end group written: not given here. *: point of attachment. 5FAM = O=C1OC2(c3ccc(O)cc3Oc3cc(O)ccc32)c2ccc(C(=O)*)cc21; CPQ2 = quencher on the Lys side chain; PEG2′ = polyethylene glycol linker

T1 sequence (P14780 94-707): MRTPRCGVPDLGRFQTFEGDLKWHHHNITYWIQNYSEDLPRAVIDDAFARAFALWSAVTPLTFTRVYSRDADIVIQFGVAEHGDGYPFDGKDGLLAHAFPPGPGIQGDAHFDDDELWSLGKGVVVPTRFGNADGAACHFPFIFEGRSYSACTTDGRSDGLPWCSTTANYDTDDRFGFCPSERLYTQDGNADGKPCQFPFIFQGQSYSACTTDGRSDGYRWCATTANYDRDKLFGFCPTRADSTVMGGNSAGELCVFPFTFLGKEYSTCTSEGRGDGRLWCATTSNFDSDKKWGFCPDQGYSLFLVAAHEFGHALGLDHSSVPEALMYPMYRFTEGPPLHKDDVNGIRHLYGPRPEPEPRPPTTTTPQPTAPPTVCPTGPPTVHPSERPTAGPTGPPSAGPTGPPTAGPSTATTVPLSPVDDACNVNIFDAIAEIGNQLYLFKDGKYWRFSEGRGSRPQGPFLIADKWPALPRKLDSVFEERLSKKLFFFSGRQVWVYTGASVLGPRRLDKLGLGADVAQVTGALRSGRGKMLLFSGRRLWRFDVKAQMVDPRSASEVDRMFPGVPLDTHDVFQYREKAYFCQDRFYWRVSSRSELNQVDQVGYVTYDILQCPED
Sequence of mouse MMP9 (P41245 108-730): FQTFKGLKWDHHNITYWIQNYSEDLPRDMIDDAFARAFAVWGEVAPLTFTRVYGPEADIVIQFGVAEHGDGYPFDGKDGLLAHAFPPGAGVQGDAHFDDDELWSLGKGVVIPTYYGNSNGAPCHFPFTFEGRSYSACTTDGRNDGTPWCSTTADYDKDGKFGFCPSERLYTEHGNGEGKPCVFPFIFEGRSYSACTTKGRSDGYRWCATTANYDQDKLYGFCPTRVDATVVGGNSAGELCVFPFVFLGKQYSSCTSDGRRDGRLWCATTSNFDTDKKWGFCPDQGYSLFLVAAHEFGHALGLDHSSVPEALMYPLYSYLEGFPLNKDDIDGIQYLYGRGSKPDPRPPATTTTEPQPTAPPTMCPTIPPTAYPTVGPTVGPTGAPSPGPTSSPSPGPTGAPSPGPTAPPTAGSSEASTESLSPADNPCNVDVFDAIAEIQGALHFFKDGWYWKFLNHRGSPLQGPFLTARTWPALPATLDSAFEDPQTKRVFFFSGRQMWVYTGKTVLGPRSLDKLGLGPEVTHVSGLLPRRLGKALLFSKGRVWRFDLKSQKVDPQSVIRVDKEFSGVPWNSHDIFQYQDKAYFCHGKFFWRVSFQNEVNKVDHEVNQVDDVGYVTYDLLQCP

As for “5-FAM-GGPLGVRGKK(CPQ2)-PEG2-C (5FAM-GGPLGVRGKK(CPQ2)[PEG2′]C) [MMP9 peptide substrate, MMP9 peptide substrate (PLGVRGK) flanked by a FRET pair, presented on nanoparticle surface at varying PEG tether lengths]”, the “cleavage velocity (V) by MMP9” value with MMP9 (longest presentation distance (tether length)) stood at 0.96 nM/s; with MMP9 (shortest presentation distance (tether length)), 0.24 nM/s. The results for the “cleavage velocity (V) by thrombin” value with thrombin (longest presentation distance) and in the experiment with thrombin (shortest presentation distance) were 0.01 nM/s and 0.29 nM/s, respectively. The “cleavage by mouse MMP9” value in the experiment with mouse MMP9 is “readily able to cleave”.
With “5-FAM-GGfPRSGGGK(CPQ2)-PEG2-C [thrombin-selective substrate]”, at thrombin (varying linker lengths on nanoparticle surface), the “optimal presentation length for thrombin cleavage” value is “optimally presented at an intermediate length”.
Turning to `CNC(=O)[C@@H](NC(=O)[C@H](CC(C)C)[C@H](O)C(=O)NO)C(C)(C)C` [marimistat], the “inhibition of cleavage of MMP9 substrate by OVCAR-8 conditioned media” value is “can be inhibited” with matrix-metalloprotease and “can inhibit a significant portion of the cleavage” with matrix-metalloprotease (listed as Marimistat).

B1: HE4: human epididymis protein, clinical blood biomarker used as comparator diagnostic, measured by ELISA (protein, UniProt Q14508 31-124, looked up)
WAP four-disulfide core …: EKTGVCPELQADQNCTQECVSDSECADNLKCCSAGCATFCSLPNDKEGSCPQVNINFPQLGLCRDQCQVDSQCPGQMKCCRNGCGKVSCVTPNF
Consider B1, for which the “limit of detection (tumor volume)” value in the experiment on OVCAR-8 tumor nodules (3 weeks) stood at 88 mm^3. Besides, the values for the ROC-AUC with OVCAR-8 tumor nodules (three weeks) and with OVCAR-8 tumor nodules (two weeks) were 0.93 and 0.51, respectively.
